Measured values published in patent publication US20110256127A1 (Genentech, published 2011).
Where “and” joins values, the source holds several entries; their conditions need not be identical. Equal entries are not always repeated.

Tests used:
[1] = target: T1, LRP6 (human; form used in the assay not stated) (human, UniProt O75581 20-1253, limits assumed); experiment: SPR (BIAcore), full length IgG; LRP6 construct not stated; affinity-matured clone, full length human IgG
T1 construct: probably an E3-E4 fragment for SPR
T1 sequence: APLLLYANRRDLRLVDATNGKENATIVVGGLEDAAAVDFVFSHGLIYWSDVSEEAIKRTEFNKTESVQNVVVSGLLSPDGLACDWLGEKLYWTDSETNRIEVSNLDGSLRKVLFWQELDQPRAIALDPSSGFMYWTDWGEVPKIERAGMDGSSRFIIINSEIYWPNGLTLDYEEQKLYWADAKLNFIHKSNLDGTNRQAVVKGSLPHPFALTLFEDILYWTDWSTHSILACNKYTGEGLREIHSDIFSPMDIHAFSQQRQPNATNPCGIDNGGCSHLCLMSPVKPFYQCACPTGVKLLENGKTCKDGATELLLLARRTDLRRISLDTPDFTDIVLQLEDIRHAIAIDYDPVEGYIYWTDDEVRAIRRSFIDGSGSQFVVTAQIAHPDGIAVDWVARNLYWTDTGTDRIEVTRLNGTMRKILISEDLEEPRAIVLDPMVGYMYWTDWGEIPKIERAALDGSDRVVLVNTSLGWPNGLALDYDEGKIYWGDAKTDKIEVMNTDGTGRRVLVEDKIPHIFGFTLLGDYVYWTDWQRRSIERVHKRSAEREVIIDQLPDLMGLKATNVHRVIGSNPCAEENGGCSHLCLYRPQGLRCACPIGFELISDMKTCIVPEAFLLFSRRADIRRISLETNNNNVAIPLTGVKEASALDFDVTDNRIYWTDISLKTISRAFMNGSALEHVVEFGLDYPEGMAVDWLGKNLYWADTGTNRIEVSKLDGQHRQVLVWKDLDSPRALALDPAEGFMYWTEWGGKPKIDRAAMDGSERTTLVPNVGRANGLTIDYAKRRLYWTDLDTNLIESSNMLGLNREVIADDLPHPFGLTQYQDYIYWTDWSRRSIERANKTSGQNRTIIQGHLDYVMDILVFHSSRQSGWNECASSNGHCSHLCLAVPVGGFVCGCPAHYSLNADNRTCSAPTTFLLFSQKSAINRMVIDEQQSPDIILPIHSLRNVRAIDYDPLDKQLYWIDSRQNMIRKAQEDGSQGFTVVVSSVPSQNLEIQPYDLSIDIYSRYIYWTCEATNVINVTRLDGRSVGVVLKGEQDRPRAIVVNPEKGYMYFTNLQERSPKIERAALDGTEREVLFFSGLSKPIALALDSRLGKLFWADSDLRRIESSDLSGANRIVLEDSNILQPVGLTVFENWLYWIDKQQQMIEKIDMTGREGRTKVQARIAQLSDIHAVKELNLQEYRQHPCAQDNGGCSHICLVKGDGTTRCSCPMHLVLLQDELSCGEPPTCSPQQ

LRP6 on HEK293 cells = LRP6 on HEK293 cells (human, UniProt O75581 20-1613); experiment: cell-based or functional assay
[2] = target: T2, LRP6.E3-E4 fragment (biotinylated, His-tagged) (Homo sapiens (Human), UniProt O75581 629-1244, biotinylated (AviTag system)); experiment: biolayer interferometry, immobilized LRP6 E3-E4 fragment; Wnt3a at 200 nM; association then dissociation phase
T2 construct: BLI antigen from baculovirus-infected insect cells; also called LRP6.E3-E4 protein; not shown: His tag and AviTag
T2 sequence: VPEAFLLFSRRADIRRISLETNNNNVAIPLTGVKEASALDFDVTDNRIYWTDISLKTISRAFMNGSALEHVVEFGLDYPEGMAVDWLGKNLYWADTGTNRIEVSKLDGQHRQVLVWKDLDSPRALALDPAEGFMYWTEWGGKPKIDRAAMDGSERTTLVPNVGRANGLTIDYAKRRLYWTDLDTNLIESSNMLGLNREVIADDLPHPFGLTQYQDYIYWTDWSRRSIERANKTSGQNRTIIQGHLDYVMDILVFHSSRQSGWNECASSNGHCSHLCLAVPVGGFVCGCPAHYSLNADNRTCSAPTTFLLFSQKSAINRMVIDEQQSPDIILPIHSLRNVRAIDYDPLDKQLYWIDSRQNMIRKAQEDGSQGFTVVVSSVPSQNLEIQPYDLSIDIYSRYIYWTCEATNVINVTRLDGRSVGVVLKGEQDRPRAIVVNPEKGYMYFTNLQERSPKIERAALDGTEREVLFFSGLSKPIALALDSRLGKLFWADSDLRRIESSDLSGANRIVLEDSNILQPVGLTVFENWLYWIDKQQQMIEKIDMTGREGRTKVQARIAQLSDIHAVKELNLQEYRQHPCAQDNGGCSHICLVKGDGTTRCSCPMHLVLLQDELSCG
Procedure: Biolayer interferometry was performed as previously described (Bourhis et al., 2010). Briefly, biotinylated, His-tagged LRP6 proteins were purified from baculovirus-infected insect cells using the AviTag system (GeneCopoeia). Binding kinetics were measured on the Octet RED System (ForteBio) using Streptavidin High Binding FA Biosensors loaded with 20 μg/ml LRP6 protein.
In these assays, antibody binding to LRP6 protein was allowed to reach equilibrium, and the subsequent wavelength shift in the interference pattern is shown for association and dissociation phases of Wnt protein binding.

LRP6.E1-E2-Fc = LRP6.E1-E2-Fc (human); experiment: ELISA
LRP6.E3-E4-Fc = target: T3, LRP6.E3-E4-Fc (human); experiment: ELISA
T3 construct: also called LRP6.E3-4-Fc

[3] = target: T4, His-tagged LRP6.E3-E4 protein (human, UniProt O75581 629-1244); experiment: phage competition ELISA, phage-displayed clone
T4 construct: also called LRP6.E3-4-His; printed once as LRP3.E3-E4; not shown: His tag
T4 sequence: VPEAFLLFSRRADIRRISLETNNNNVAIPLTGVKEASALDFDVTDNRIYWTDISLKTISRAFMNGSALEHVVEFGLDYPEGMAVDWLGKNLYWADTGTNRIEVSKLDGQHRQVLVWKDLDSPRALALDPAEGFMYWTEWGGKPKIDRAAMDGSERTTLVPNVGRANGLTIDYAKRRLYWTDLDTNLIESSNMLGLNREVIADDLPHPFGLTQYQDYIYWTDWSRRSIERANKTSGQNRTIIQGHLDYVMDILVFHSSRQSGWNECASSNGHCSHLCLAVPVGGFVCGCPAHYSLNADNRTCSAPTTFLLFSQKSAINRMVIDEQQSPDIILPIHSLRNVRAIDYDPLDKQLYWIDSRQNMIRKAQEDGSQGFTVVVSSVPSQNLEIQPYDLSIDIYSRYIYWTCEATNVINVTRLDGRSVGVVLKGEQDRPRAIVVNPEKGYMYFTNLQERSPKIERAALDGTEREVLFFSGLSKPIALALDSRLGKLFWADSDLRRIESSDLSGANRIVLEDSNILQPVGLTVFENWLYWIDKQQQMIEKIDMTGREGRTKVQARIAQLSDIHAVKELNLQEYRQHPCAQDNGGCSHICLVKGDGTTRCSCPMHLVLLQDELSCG

T3 sequence (chain, as listed by the source limits assumed): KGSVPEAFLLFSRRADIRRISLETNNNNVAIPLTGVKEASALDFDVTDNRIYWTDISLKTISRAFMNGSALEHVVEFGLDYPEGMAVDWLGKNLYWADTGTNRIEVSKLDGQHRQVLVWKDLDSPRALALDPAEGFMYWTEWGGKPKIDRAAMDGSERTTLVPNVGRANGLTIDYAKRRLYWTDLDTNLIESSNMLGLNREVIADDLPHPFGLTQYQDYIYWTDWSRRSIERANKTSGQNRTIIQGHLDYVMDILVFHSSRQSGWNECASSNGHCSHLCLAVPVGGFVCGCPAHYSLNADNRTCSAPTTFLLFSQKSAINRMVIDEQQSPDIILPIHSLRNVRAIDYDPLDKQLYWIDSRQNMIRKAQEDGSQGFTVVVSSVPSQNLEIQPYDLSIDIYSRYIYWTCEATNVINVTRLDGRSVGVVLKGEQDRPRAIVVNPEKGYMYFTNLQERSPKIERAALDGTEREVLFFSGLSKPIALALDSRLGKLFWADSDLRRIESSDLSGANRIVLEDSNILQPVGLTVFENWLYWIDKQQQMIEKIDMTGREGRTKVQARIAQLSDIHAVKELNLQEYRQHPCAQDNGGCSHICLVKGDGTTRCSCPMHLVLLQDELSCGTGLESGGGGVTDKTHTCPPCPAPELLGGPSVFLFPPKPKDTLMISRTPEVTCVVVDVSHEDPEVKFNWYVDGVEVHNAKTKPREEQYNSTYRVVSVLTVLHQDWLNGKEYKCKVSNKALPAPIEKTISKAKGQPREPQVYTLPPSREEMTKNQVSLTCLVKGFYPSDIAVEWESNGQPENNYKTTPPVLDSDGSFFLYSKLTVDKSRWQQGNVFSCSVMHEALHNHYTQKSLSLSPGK
Sequence of LRP6.E1-E2-Fc (human) (chain, as listed by the source limits assumed): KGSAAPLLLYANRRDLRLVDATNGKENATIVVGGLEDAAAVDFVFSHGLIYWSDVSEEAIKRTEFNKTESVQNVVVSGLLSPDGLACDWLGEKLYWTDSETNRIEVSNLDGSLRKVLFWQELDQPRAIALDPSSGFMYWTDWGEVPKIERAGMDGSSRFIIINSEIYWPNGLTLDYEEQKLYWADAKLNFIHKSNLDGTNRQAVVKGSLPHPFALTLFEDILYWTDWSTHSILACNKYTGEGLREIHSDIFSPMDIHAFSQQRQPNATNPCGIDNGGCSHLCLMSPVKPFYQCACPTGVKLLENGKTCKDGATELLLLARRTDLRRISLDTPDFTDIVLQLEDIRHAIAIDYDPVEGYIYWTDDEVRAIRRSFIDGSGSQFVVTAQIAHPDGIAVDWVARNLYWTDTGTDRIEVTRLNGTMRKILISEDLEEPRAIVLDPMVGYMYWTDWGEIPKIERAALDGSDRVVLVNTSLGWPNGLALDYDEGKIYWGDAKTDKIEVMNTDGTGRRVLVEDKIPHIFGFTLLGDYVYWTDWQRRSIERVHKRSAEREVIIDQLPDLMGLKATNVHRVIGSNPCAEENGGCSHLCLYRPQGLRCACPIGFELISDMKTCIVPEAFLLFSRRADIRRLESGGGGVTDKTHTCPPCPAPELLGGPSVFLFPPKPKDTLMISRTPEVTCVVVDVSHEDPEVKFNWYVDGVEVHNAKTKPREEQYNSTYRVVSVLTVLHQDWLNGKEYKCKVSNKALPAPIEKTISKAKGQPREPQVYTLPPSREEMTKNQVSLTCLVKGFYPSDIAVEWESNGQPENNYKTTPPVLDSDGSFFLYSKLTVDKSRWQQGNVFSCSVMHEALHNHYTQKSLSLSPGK

B1: YW211.31.57 antibody (antibody, human IgG1, kappa, V domains shown)
VH: EVQLVESGGGLVQPGGSLRLSCAASGFTFTSYYISWVRQAPGKGLEWVAEISPYSGSTYYADSVKGRFTISADTSKNTAYLQMNSLRAEDTAVYYCALRARPPIRLYPRGSVMDYWGQGTLVTVSS
VL: DIQMTQSPSSLSASVGDRVTITCRASQDVSTAVAWYQQKPGKAPKLLIYSASFLYSGVPSRFSGSGSGTDFTLTISSLQPEDFATYYCQQSYTLPTTFGQGTKVEIKR
B1 was tested. Which Kd [1] did it give?
The Kd was 0.27 nM.

What about the “IC50, inhibition of signaling in Wnt3a-stimulated HEK293 cells” value (LRP6 on HEK293 cells) of the same binder?
Its value is ~0.1 µg/ml and ~0.6 nM.

B2: YW211.31.62 antibody (antibody, human IgG1, kappa, V domains shown)
VH: EVQLVESGGGLVQPGGSLRLSCAASGFTFGYYYISWVRQAPGKGLEWVAEISPYSGSTYYADSVKGRFTISADTSKNTAYLQMNSLRAEDTAVYYCALRARPPIRLHPRGSVMDYWGQGTLVTVSS
VL: DIQMTQSPSSLSASVGDRVTITCRASQDVSTAVAWYQQKPGKAPKLLIYSASFLYSGVPSRFSGSGSGTDFTLTISSLQPEDFATYYCQQSYTTPPTFGQGTKVEIKR
B2 was tested. Which Kd [1] did it give?
The Kd was 0.17 nM.

And the “IC50, inhibition of signaling in Wnt3a-stimulated HEK293 cells” value (LRP6 on HEK293 cells)?
The value was ~0.1 µg/ml and ~0.6 nM.

B3: Wnt3a (ligand, human, UniProt P56704 19-352, looked up)
chain: SYPIWWSLAVGPQYSSLGSQPILCASIPGLVPKQLRFCRNYVEIMPSVAEGIKIGIQECQHQFRGRRWNCTTVHDSLAIFGPVLDKATRESAFVHAIASAGVAFAVTRSCAEGTAAICGCSSRHQGSPGKGWKWGGCSEDIEFGGMVSREFADARENRPDARSAMNRHNNEAGRQAIASHMHLKCKCHGLSGSCEVKTCWWSQPDFRAIGDFLKDKYDSASEMVVEKHRESRGWVETLRPRYTYFKVPTERDLVYYEASPNFCEPNPETGSFGTRDRTCNVSSHGIDGCDLLCCGRGHNARAERRREKCRCVFHWCCYVSCQECTRVYDVHTCK
notes: also called purified human Wnt3a
Does B3 bind [2]?
Result: binds

B4: YW211.03 antibody (antibody, V domains shown)
VH: EVQLVESGGGLVQPGGSLRLSCAASGFTFTGYWIHWVRQAPGKGLEWVGTISPAGGSTDYADSVKGRFTISADTSKNTAYLQMNSLRAEDTAVYYCARTDWRFHHAGEYAMDYWGQGTLVTVSS
VL: DIQMTQSPSSLSASVGDRVTITCRASQDVSTAVAWYQQKPGKAPKLLIYSASFLYSGVPSRFSGSGSGTDFTLTISSLQPEDFATYYCQQSYTTPPTFGQGTKVEIKR
Does B4 bind (LRP6.E1-E2-Fc)?
Result: no binding

Does B4 bind (LRP6.E3-E4-Fc)?
Result: binds

B5: YW211.08 antibody (antibody, V domains shown)
VH: EVQLVESGGGLVQPGGSLRLSCAASGFTFTDYWIHWVRQAPGKGLEWVAGISPDGGSTYYADSVKGRFTISADTSKNTAYLQMNSLRAEDTAVYYCARWSYISRYFSSVMDYWGQGTLVTVSS
VL: DIQMTQSPSSLSASVGDRVTITCRASQDVSTAVAWYQQKPGKAPKLLIYSASFLYSGVPSRFSGSGSGTDFTLTISSLQPEDFATYYCQQSYTTPPTFGQGTKVEIKR
Does B5 bind (LRP6.E1-E2-Fc)?
Result: no binding

Does B5 bind (LRP6.E3-E4-Fc)?
Result: binds

B6: YW211.11 antibody (antibody, V domains shown)
VH: EVQLVESGGGLVQPGGSLRLSCAASGFTFTNYDIHWVRQAPGKGLEWVASIYPAGGDTDYADSVKGRFTISADTSKNTAYLQMNSLRAEDTAVYYCARSPGWALRGAMDYWGQGTLVTVSS
VL: DIQMTQSPSSLSASVGDRVTITCRASQDVSTAVAWYQQKPGKAPKLLIYSASFLYSGVPSRFSGSGSGTDFTLTISSLQPEDFATYYCQQSYTTPPTFGQGTKVEIKR
Does B6 bind (LRP6.E1-E2-Fc)?
Result: no binding

Does B6 bind (LRP6.E3-E4-Fc)?
Result: binds

B7: YW211.12 antibody (antibody, V domains shown)
VH: EVQLVESGGGLVQPGGSLRLSCAASGFTFTGNDIHWVRQAPGKGLEWVGRIYPYGGYTDYADSVKGRFTISADTSKNTAYLQMNSLRAEDTAVYYCAKEVTYHLFDYWGQGTLVTVSS
VL: DIQMTQSPSSLSASVGDRVTITCRASQDVSTAVAWYQQKPGKAPKLLIYSASFLYSGVPSRFSGSGSGTDFTLTISSLQPEDFATYYCQQSYTTPPTFGQGTKVEIKR
Does B7 bind (LRP6.E1-E2-Fc)?
Result: no binding

Does B7 bind (LRP6.E3-E4-Fc)?
Result: binds

B8: YW211.33 antibody (antibody, V domains shown)
VH: EVQLVESGGGLVQPGGSLRLSCAASGFTFSGSSISWVRQAPGKGLEWVGVISPSSGATYYADSVKGRFTISADTSKNTAYLQMNSLRAEDTAVYYCARWPAGAFLGYYGMDYWGQGTLVTVSS
VL: DIQMTQSPSSLSASVGDRVTITCRASQDVSTAVAWYQQKPGKAPKLLIYSASFLYSGVPSRFSGSGSGTDFTLTISSLQPEDFATYYCQQSYTTPPTFGQGTKVEIKR
Does B8 bind (LRP6.E1-E2-Fc)?
Result: no binding

Does B8 bind (LRP6.E3-E4-Fc)?
Result: binds

B9: YW211.31.11 antibody (antibody, V domains shown)
VH: EVQLVESGGGLVQPGGSLRLSCAASGFTFGFYYLSWVRQAPGKGLEWVAEISPYSGSTYYADSVKGRFTISADTSKNTAYLQMNSLRAEDTAVYYCALRARPPIRLHPRGSVMDYWGQGTLVTVSS
VL: DIQMTQSPSSLSASVGDRVTITCRASQDVSTAVAWYQQKPGKAPKLLIYSASFLYSGVPSRFSGSGSGTDFTLTISSLQPEDFATYYCQQSYAIPTTFGQGTKVEIKR
Does B9 bind [3]?
Result: binds

B10: YW211.31.35 antibody (antibody, V domains shown)
VH: EVQLVESGGGLVQPGGSLRLSCAASGFTFGFYYISWVRQAPGKGLEWVAEISPYSGSTYYADSVKGRFTISADTSKNTAYLQMNSLRAEDTAVYYCALRARPPIRLHPRGSVMDYWGQGTLVTVSS
VL: DIQMTQSPSSLSASVGDRVTITCRASQDVSTAVAWYQQKPGKAPKLLIYSASFLYSGVPSRFSGSGSGTDFTLTISSLQPEDFATYYCQQSYTTPPTFGQGTKVEIKR
Does B10 bind [3]?
Result: binds
